Source: paper PMC3605141, “NODULE INCEPTION Directly Targets NF-Y Subunit Genes to Regulate Essential Processes of Root Nodule Development in Lotus japonicus”

T1: NIN(520-878)-myc (C-ter) (Lotus japonicus) (UniProt Q9S7B1)
T1 sequence: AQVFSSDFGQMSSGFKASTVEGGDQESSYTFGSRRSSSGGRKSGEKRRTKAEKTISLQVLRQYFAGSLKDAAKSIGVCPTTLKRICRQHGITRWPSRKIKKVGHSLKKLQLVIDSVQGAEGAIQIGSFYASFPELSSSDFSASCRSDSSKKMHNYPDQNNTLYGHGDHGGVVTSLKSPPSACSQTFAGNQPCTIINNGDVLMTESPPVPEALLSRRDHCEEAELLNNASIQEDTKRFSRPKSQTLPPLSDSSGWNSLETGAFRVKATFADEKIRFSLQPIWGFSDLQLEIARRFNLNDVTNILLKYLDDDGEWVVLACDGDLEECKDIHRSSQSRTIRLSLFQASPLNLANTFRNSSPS

T2: NIN-myc (Full) (Lotus japonicus) (UniProt Q9S7B1)
T2 sequence: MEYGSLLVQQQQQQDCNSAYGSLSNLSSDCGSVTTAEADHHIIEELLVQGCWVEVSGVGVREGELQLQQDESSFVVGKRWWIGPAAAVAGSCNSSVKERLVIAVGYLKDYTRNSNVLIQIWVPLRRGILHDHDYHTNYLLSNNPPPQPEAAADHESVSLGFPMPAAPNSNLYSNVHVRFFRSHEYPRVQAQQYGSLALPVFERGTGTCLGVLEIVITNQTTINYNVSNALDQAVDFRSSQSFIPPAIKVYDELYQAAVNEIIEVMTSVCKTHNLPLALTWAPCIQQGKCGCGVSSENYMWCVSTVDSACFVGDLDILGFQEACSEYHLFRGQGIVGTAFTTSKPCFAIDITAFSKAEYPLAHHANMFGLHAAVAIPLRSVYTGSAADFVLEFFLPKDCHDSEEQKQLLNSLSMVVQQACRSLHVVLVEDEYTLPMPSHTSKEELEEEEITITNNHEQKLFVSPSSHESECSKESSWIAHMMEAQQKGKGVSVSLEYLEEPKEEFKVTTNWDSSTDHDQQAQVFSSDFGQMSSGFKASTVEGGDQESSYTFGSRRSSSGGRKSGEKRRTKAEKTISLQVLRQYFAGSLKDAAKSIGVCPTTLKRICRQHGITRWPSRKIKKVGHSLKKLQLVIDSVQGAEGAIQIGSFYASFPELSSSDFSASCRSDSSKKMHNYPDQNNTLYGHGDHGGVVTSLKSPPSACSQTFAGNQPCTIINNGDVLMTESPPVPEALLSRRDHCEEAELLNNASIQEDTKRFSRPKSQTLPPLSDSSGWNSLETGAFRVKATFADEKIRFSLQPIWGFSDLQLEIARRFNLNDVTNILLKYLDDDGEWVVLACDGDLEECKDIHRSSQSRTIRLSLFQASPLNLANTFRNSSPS

B1: probe 14 m5 (dsDNA)
DNA 1: AAACCCCATCAATTTACTTGTATCTTTAGAGCTTTCCAACCCTATTTTC
DNA 2: GAAAATAGGGTTGGAAAGCTCTAAAGATACAAGTAAATTGATGGGGTTT
B2: NBS-yB1a m14 (dsDNA)
DNA 1: TACTTGTATCTTTAGAGCTTTCCAAGGGTATTTTC
DNA 2: GAAAATACCCTTGGAAAGCTCTAAAGATACAAGTA
B3: NBS-yB1a m12 (dsDNA)
DNA 1: TACTTGTATCTTTAGAGCTTTCGTTGGGATATTTC
DNA 2: GAAATATCCCAACGAAAGCTCTAAAGATACAAGTA
B4: NBS-yB1a m13 (dsDNA)
DNA 1: TACTTGTATCTTTAGAGCTTTCCAACCCATATTTC
DNA 2: GAAATATGGGTTGGAAAGCTCTAAAGATACAAGTA
B5: NBS-yB1a m8 (dsDNA)
DNA 1: TACTTGTATCAAAAGAGCTTTCCAAGGGATATTTC
DNA 2: GAAATATCCCTTGGAAAGCTCTTTTGATACAAGTA
B6: probe 14 m3 (dsDNA)
DNA 1: AAACCCCATCAATTTACTTGTTAGAAAAGAGCTTTCCAAGGGATATTTC
DNA 2: GAAATATCCCTTGGAAAGCTCTTTTCTAACAAGTAAATTGATGGGGTTT

What was measured:
[1] = molecular target: T1, NIN(520-878)-myc (C-ter) (Lotus japonicus); assay: EMSA; details: 20 mM Hepes-KOH pH 7.9, 50 mM KCl, 1 mM MgCl2, 1 mM DTT, 4% glycerol, 0.1% Triton X-100, 2 ug BSA, 400 ng dIdC, 20 ul, 30 min at room temperature; 10-30 fmol …
[2] = molecular target: T2, NIN-myc (Full) (Lotus japonicus); assay: EMSA; details: 20 mM Hepes-KOH pH 7.9, 50 mM KCl, 1 mM MgCl2, 1 mM DTT, 4% glycerol, 0.1% Triton X-100, 2 ug BSA, 400 ng dIdC, 20 ul, 30 min at room temperature; 10-30 fmol …
NIN(520-878)-myc (C-ter) = NIN(520-878)-myc (C-ter) (Lotus japonicus, UniProt Q9S7B1 520-878); assay: EMSA; 20 mM Hepes-KOH pH 7.9, 50 mM KCl, 1 mM MgCl2, 1 mM DTT, 4% glycerol, 0.1% Triton X-100, 2 ug BSA, 400 ng dIdC, 20 ul, 30 min at room temperature; 10-30 fmol 32P probe; details: protein: ivt, tags: myc

Row | Molecule | binding [1] | binding result (NIN(520-878)-myc (C-ter); label: 32P) | also measured
1 | AAAGAGTGAAGATGAATATGAAATATCCCTTGGAAAGCTCTAAAG (double strand) [LjNF-YB1 probe 13] | no binding |  | 
2 | GAGAAAATGCTAGTTTTTAAAAAGAGAACCTTTATTTTTTTAAATATTGTATTTACGAAGAAAACTGAAAAAGAACAGATGATTTCAGTTAGATTGCTTGGCCCCCTTCTTATCTGGACAGGCATTTTCCTG (double strand) [LjNF-YA1 probe 9] | binds |  | binding [2]: binds
3 | GGCCTTTGAGGCCGCTCAAAAGAGTGAAGATGAATATGAAAT (double strand) [LjNF-YB1 probe 12] | no binding |  | 
4 | GTTAATGGATGCTGAGAAGGCCTTTGAGGCCGCTCAAAAGAGTGAAGATGAATATGAAATATCCCTTGGAAAGCTCTAAAG (double strand) [LjNF-YB1 probe 9] | binds |  | binding [2]: binds
5 | TACAATTCTTTACTTTCAATACAAAAAACCCCATCAATTTACTTGTATCTTTAG (double strand) [LjNF-YB1 probe 15] | no binding |  | 
6 | TCACTTTGGTGGATGTGGATATACAATTCTTTACTTTCAATACAAAAAACC (double strand) [LjNF-YB1 probe 16] | no binding |  | 
7 | TCACTTTGGTGGATGTGGATATACAATTCTTTACTTTCAATACAAAAAACCCCATCAATTTACTTGTATCTTTAGAGCTTTCCAAGGGATATTTC (double strand) [LjNF-YB1 probe 10] | binds |  | binding [2]: binds
8 | TCTTTTGAGCGGCCTCAAAGGCCTTCTCAGCATCCATTAAC (double strand) [LjNF-YB1 probe 11] | no binding |  | 
9 | B1 |  | no binding | 
10 | B2 |  | no binding | 
11 | B3 |  |  | binding result (NIN(520-878)-myc (C-ter); label: 32P as probe): no binding
12 | B4 |  | no binding | 
13 | B5 |  | no binding | 
14 | B6 |  | no binding | 
